The values that follow come from patent EP3636665A1 (dated 2020).

Experiment [1] has as its target T1, MAGE-A3 peptide on HLA-DPB1*04:01 (human).
T1 peptide: KKLLTQHFVQENY
Kind of experiment: cytokine release.

For experiment [2], the target named is T2, MAGE-A1 and a second family member (printed 'MRGE-A1/R4') peptide on HLA-DPB1*04:01 (human).
T2 peptide: QDLVQEKYLEY
As to the kind of experiment: cytokine release.

B1: 6F9 TCR (TCR, V domains shown)
Valpha: AQTVTQSQPEMSVQEAETVTLSCTYDTSESDYYLFWYKQPPSRQMILVIRQEAYKQQNATENRFSVNFQKAAKSFSLKISDSQLGDAAMYFCALRSSGTYKYIFGTGTRLKVLA
Vbeta: GAGVSQSPSNKVTEKGKDVELRCDPISGHTALYWYRQSLGQGLEFLIYFQGNSAPDKSGLPSDRFSAERTGGSVSTLTIQRTQQEDSAVYLCASIRTGPFFSGNTIYFGEGSWLTVV
Regarding B1, the binding result in experiment [1] and in experiment [2] was “no recognition” each time.
